These results are taken from patent publication US20030229922A1, “Materials and methods for the modification of plant cell wall polysaccharides” (GENESIS RESEARCH AND DEVELOPMENT CORPORATION LTD., priority 1998, published 2003).

For data set [1], the system named is T1, O=c1ccn([C@@H]2O[C@H](COP(=O)(O)OP(=O)(O)O)[C@@H](O)[C@H]2O)c(=O)[nH]1.
T1 construct: wild type
The experiment in a line: SUS (sucrose synthase) enzyme assay (purified recombinant protein). Format: biochemical, Eucalyptus grandis. The settings on record: other: E. grandis SUS; SEM 0.003. From the text: (§1) Sense constructs containing sequences including the coding regions for UGP (SEQ ID NO: 79) and SUS (SEQ ID NO: 105) from Eucalyptus grandis, and UGP (SEQ ID NO: 80) from Pinus radiata were inserted into the expression vector pET16b (Clontech Laboratories Inc, Palo Alto, Calif.). The resulting constructs were transformed into E. coli XL1-Blue (Stratagene) and induced to produce recombinant protein by the addition of IPTG. Purified proteins were obtained using Ni^2+ column chromatography (Janknecht et al., Proc. Natl. Acad. Sci. USA, 88:8972-8976, 1991).
(§2) Enzyme assays for SUS (sucrose synthase) were performed using the methods described by Sebkova et al. Plant Physiol., 108:75-83, 1995. […] The KM^Sucrose of E. grandis is compared with the data reported by Delmer, J. Biol. Chem. 247:3822-3828, 1972 and Nakai et al., Biosci. Biotech. Biochem. 61:1500-1503, 1997.

In data set [2] the test system is T2, OC[C@H]1O[C@@](CO)(O[C@H]2O[C@H](CO)[C@@H](O)[C@H](O)[C@H]2O)[C@@H](O)[C@@H]1O.
T2 construct: wild type
The description is as above. The settings on record: other: E. grandis SUS; SEM 0.371. Format: biochemical, Eucalyptus grandis.
Excerpt: as §1, §2

Broadly, the Km is the concentration of substrate that gives half-maximal velocity.

Eucalyptus grandis SUS (sucrose synthase), SEQ ID NO: 105 (DNA; protein SEQ ID NO: 106) (Eucalyptus grandis), sequence (chain, as listed by the source): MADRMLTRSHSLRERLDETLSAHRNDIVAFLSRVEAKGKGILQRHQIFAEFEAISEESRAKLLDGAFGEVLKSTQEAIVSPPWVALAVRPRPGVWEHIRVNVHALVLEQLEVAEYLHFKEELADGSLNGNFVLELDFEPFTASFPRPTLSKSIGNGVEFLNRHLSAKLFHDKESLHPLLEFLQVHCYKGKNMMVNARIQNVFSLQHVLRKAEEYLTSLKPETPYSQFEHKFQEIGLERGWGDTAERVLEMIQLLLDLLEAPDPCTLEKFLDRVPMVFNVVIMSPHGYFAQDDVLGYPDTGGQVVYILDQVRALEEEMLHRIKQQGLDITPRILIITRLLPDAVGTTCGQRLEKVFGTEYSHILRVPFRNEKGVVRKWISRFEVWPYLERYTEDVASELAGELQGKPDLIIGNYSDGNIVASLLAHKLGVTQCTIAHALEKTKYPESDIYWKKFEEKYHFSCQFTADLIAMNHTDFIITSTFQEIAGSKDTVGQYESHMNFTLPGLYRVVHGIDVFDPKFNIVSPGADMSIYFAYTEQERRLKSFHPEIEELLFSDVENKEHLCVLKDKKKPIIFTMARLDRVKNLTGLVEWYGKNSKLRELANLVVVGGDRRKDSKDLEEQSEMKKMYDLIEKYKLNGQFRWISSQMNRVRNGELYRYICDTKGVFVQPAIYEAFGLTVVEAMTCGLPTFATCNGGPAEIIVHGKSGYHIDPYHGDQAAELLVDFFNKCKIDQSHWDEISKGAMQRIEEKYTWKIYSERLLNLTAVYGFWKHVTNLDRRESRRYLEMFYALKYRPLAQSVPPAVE

As for “Eucalyptus grandis SUS (sucrose synthase), SEQ ID NO: 105 (DNA; protein SEQ ID NO: 106) (Eucalyptus grandis)”, the figures for the Km in data set [1] and in data set [2] were 28 µM and 1650 µM, respectively.
